T1: EphA8(h) (human, UniProt P29322 564-1005, limits assumed)
T1 sequence (looked up): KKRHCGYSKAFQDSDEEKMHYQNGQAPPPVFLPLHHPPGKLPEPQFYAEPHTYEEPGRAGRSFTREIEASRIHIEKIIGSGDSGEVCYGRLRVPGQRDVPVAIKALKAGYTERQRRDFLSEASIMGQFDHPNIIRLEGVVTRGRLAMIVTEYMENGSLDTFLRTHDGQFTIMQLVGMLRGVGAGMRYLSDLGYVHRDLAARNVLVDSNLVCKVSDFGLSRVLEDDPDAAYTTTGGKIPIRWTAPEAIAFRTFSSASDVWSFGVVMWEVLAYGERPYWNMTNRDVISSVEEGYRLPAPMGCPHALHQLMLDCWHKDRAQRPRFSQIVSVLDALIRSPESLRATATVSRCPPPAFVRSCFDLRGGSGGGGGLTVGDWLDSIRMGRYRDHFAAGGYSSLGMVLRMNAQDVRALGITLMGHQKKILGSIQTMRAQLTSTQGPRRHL

T2: EphB2(h) (human, UniProt P29323 565-986, limits assumed)
T2 sequence (looked up): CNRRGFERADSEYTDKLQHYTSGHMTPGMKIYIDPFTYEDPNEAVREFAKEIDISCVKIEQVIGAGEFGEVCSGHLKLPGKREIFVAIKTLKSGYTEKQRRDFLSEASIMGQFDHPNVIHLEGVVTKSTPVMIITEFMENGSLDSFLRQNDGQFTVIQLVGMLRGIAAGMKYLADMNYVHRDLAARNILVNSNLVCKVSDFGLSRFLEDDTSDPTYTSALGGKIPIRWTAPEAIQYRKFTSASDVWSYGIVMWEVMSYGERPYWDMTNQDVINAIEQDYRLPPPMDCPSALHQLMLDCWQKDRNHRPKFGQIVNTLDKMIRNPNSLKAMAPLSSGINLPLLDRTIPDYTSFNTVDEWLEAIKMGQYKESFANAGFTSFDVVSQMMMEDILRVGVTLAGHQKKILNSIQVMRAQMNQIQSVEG

T3: PKCε(h) (human, UniProt Q02156 1-737)
T3 sequence (looked up): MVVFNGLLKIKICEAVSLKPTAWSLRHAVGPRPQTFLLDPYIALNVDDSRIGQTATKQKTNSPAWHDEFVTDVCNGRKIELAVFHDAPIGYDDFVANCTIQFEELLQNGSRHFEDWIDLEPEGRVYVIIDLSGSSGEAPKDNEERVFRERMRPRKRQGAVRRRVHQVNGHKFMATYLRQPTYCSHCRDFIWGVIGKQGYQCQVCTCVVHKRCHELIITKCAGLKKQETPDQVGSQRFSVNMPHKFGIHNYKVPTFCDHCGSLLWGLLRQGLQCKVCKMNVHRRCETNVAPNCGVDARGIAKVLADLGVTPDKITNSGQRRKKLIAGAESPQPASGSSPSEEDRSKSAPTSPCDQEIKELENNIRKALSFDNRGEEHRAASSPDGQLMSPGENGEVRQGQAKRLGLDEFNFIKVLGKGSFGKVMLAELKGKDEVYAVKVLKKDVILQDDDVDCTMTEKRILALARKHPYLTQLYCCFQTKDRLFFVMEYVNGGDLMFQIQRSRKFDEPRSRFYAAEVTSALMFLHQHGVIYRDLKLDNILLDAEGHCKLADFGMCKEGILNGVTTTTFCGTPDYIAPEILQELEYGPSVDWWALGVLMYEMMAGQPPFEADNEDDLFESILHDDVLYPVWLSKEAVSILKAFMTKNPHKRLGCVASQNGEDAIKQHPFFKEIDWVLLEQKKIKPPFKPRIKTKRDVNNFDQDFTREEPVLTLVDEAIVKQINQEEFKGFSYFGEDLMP


Experiments:
Assay in all cases: cell-based or functional assay
[1] = target: MLCK(h) (human)
[2] = target: TrkA(h) (human, UniProt P04629 441-796, limits assumed)
Sequence of TrkA(h) (P04629 441-796 limits assumed): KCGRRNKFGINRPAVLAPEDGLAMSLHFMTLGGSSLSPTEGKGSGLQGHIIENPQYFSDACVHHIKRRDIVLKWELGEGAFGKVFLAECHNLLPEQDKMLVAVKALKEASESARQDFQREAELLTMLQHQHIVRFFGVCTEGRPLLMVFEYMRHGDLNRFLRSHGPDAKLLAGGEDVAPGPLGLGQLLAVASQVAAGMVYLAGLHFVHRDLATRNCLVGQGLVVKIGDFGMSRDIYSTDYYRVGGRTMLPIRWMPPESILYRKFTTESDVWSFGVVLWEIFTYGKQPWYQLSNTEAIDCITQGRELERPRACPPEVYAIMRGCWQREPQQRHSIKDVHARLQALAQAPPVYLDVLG

[3] = target: Met(Y1248C)(h) (human, UniProt P08581-2 974-1408, limits assumed)
[4] = target: MAPKAP-K2(h) (human, UniProt P49137 46-400)
Sequence of MAPKAP-K2(h) (P49137 46-400 limits assumed): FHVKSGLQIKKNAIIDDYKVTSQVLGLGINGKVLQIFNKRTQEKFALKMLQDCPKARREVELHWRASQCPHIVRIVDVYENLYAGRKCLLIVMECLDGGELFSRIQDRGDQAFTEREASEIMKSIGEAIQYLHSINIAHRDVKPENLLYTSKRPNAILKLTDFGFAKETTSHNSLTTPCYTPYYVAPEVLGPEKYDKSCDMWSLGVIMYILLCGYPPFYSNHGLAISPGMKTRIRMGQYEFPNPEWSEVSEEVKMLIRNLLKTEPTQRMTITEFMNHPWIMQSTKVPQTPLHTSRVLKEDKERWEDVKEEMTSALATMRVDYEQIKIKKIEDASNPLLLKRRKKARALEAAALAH

[5] = target: T1, EphA8(h)
[6] = target: Fes(h) (human, UniProt P07332 1-822, limits assumed)
Sequence of Fes(h) (P07332 whole entry): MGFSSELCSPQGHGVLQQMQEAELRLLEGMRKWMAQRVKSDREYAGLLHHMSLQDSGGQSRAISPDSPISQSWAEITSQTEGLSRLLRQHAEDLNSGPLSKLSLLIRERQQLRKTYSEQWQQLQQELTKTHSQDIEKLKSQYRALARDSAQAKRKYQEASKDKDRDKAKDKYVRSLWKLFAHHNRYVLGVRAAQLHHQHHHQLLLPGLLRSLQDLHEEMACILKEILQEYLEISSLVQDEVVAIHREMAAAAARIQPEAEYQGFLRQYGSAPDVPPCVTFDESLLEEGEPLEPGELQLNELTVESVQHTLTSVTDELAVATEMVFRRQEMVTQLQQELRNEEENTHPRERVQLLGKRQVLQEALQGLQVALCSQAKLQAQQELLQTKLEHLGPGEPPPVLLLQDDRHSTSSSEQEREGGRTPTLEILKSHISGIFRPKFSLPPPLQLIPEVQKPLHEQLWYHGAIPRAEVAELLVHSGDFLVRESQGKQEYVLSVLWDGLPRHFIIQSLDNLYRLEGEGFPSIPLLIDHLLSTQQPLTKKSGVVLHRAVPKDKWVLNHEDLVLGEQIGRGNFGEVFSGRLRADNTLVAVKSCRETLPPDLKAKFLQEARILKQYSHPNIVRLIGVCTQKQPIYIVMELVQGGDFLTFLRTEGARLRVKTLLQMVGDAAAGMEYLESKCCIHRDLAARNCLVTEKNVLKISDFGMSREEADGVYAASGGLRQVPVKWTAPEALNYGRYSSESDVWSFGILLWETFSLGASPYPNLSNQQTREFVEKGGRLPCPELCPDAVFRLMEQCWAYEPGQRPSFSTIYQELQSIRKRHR

[7] = target: T2, EphB2(h)
[8] = target: Lck(h) activated (human, UniProt P06239 1-509, limits assumed)
Sequence of Lck(h) activated (P06239 whole entry): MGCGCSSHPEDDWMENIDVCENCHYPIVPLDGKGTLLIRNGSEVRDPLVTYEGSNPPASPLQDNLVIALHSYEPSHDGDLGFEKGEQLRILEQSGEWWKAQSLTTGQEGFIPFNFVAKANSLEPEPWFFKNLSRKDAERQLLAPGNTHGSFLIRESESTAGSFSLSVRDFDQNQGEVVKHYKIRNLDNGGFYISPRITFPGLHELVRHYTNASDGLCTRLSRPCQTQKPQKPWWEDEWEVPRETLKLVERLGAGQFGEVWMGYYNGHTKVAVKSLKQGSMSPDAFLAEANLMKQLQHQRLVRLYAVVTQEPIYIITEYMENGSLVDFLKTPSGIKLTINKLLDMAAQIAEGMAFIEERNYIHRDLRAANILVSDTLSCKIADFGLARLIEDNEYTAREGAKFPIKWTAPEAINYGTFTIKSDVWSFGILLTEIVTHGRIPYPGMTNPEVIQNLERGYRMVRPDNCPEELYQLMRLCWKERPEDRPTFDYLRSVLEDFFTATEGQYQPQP

[9] = target: PKCδ(h) (human, UniProt Q05655 1-676)
Sequence of PKCδ(h) (Q05655 whole entry, stated change not applied): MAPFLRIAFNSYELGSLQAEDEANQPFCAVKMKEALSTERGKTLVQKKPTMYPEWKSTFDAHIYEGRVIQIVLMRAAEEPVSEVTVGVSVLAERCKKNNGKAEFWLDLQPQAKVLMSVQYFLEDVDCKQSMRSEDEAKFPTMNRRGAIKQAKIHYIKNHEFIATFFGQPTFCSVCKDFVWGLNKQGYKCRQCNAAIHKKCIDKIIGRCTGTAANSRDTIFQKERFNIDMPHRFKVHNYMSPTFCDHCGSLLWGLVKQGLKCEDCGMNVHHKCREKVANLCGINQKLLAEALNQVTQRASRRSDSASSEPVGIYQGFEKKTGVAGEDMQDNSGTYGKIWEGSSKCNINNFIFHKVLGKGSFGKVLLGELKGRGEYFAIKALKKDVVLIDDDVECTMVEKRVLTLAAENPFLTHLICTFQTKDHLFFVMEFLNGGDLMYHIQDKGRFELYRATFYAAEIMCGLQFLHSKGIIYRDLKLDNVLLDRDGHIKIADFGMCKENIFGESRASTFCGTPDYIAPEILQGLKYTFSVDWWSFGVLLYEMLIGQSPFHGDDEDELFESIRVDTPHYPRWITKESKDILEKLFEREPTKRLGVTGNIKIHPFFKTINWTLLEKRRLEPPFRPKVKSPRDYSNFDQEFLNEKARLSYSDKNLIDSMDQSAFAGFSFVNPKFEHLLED

[10] = target: CDK2/cyclinA(h) (human, UniProt P24941 1-298; P20248 1-432)
[11] = target: T3, PKCε(h)
[12] = target: GSK3α(h) (human, UniProt P49840 1-483)
Sequence of GSK3α(h) (P49840 whole entry): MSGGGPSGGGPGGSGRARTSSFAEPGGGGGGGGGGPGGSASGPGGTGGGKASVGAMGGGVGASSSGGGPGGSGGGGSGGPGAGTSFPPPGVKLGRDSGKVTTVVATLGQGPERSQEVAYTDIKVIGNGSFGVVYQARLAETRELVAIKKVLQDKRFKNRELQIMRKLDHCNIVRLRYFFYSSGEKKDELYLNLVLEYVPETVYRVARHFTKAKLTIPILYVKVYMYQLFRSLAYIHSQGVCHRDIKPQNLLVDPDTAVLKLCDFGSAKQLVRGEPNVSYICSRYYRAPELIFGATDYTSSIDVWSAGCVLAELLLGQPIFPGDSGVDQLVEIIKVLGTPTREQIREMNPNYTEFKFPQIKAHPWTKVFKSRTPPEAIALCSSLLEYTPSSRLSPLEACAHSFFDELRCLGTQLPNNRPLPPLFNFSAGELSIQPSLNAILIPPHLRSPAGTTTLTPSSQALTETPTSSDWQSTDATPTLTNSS

[13] = target: CHK2(h) (human, UniProt O96017 5-543, limits assumed)
Sequence of CHK2(h) (O96017 5-543 limits assumed): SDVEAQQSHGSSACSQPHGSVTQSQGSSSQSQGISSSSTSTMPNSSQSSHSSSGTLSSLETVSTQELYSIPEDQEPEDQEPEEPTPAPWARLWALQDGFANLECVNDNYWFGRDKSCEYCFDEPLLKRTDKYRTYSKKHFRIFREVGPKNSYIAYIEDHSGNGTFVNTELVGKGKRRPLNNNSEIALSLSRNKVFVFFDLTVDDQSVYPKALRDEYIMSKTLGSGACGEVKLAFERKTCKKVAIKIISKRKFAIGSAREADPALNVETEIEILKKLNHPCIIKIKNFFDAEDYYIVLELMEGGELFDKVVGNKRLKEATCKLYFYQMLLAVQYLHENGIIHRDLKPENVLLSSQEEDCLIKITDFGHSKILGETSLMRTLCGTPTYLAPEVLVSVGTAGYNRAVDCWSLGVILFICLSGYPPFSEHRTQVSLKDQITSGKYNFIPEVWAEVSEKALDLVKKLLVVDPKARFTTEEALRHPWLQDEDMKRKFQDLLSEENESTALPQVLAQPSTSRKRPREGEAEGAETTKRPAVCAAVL
Also: test concentration or dose not given here.

% activity [1] [%]	% activity [2] [%]	% activity [3] [%]	% activity [4] [%]	% activity [5] [%]	% activity [6] [%]	% activity [7] [%]	% activity [8] [%]	% activity [9] [%]	% activity [10] [%]	% activity [11] [%]	% activity [12] [%]	% activity [13] [%]	Binder
2	25	84	5	93	20	18	243	101	86	79	157	66	FAKLAARLYRKALARQLGVAA [MMI-0300]
1	17	36	5	146	16	22	216	90	92	59	164	54	KAFAKLAARLYRKALARQLGVAA [MMI-0400]

From patent publication US20160200782A1 (MOERAE MATRIX, published 2016)
